Data set [1] in a line: SEC/DLS of oligomeric species. Conditions: SEC, 20 µM SBD641. It is filed as physicochemical, human. On the procedure: Analytical SEC was performed at 4 °C using a Superdex 75 10/300 GL column (GE Healthcare LifeSciences, Little Chalfont, U.K.), which had previously been calibrated using a mixture of standard proteins (Gel Filtration LMW Calibration Kit; GE Healthcare LifeSciences, Little Chalfont, U.K.). Typically, samples of the various constructs contained 70 µM of protein in 50 mM Tris buffer at pH 7.4, with 150 mM KCl, 5 mM MgCl2 and were incubated for 15 min (unless otherwise specified) at room temperature before being loaded onto the column for analysis. To evaluate the reversibility of the oligomerization process, the different elution peaks obtained for each protein variant were subsequently analyzed after concentrating the different fractions using AmiconUltra-0.5, Ultracel-3 Membrane, 3 kDa (Millipore, Bedford, MA, USA). […]
Dynamic light scattering. Representative size distributions of SBD641 at different protein concentrations in Tris 50 mM, pH 7.4, 150 mM KCl, 5 mM MgCl2 were recorded at 25 °C on the Zetasizer Nano ZS instrument (Malvern Instruments Ltd.) at 633 nm after 1 h of incubation at room temperature. […] Some samples were analyzed after 1 h and 4 h incubation at room temperature and the same intensity size distributions were obtained. The samples were centrifuged for 15 min at 13200 rpm to remove dust particles and the scattered light was detected at an angle of 173°. […]

Data set [2] is described as follows: Secondary structure content from far-UV CD. The settings on record: K2D software; 20 µM protein, 7 mM Tris pH 7.4, 170 mM KCl, 5 mM MgCl2; 25 °C. It is filed as physicochemical, human. On the procedure: Far-UV CD spectra for all protein variants were recorded using a Jasco J-810 spectropolarimeter equipped with a Peltier holder, using a 0.1 cm path length cuvette. Typically, samples contained 20 µM protein in 7 mM Tris buffer at pH 7.4, containing 170 mM KCl and 5 mM MgCl2. The far-UV CD spectra of all the variants in their native, thermally denatured and refolded states were recorded from 198 to 250 nm, and the spectrum of the buffer was systematically subtracted from the spectra of all protein samples. The secondary structure content was estimated from the far-UV CD spectrum for each protein variant using K2D software.

The subject of a further data set is refolded SBD641. In words: Fluorescence titration of dansyl-NR peptide binding, refolded protein. More on the design: species or system human. Conditions: refolded vs native SBD641, fluorescence titration. On the procedure: The interaction between the different Hsp70 variants and the NR peptide was studied in 50 mM Tris buffer at pH 7.4, with 150 mM KCl, and 5 mM MgCl2 using fluorescence spectroscopy by titrating different concentrations of chaperone into a solution containing 2 µM dansyl-NR peptide (N-terminally labeled; Genemed Synthesis Inc., San Antonio, TX, USA) after incubating the mixtures for 1 h at 25°C. The concentration of dansyl-NR peptide was calculated using an extinction coefficient at 327 nm of 4300 M^-1.cm^-1 [39]. The fluorescence emission spectrum of each sample was recorded from 400 to 630 nm after excitation at 330 nm, and the data reported correspond to the average intensity at the maximum emission wavelength of two different samples for which ten spectra were recorded. The increase in fluorescence signal was plotted as a function of chaperone concentration (Figure S2), and analyzed assuming single-site binding using the following equation:
ΔF=ΔFmaxΘL=ΔFmax/2LT[(PT+LT+Kd)−(PT+LT+Kd)^2−4PTLT] (1)
where ΘL is the fraction of bound ligand, ΔF is the increase in fluorescence intensity observed at a given concentration of Hsp70 variant, ΔF max is the increase in fluorescence at saturation, L T and P T are the total ligand and protein concentration respectively, and K d is the apparent dissociation constant of the complex. […]

Data set [3] in a line: Tryptophan (W580) fluorescence emission. Format: physicochemical, human. The settings on record: W580, excitation 295 nm. As to the method:
Steady-state tryptophan fluorescence emission spectra of native, thermally denatured and refolded proteins were recorded from 300 to 400 nm, selectively exciting the only tryptophan residue in the SBD (W580) at 295 nm, using a Cary Eclipse spectrofluorimeter (Varian, Palo Alto, CA, USA). Excitation and emission band-passes were set to 5 nm each.

Data set [4] can be described thus: Thermal denaturation monitored by far-UV CD. It is filed as physicochemical, human. As to the method:
Protein structural stability was analyzed by monitoring the CD signal at 222 nm upon thermal denaturation. Thermal runs were performed from 5 to 90 °C at a rate of 1 °C. min^-1. Data points were acquired every 0.1 °C with a response time of 2 s and a bandwidth of […]. After thermal denaturation, each protein sample was cooled to the starting temperature, and a second denaturation curve recorded in order to analyse the degree of reversibility of the denaturation process. Analysis of the thermal unfolding curves was performed assuming a three-state unfolding model.

Several values for one entry are separate records, joined by “and”; a condition that tells them apart may be missing. Equal entries are not always repeated.

As to “SBD641: truncated human Hsp70 (384-641), full-length SBD with interdomain linker”, in data set [1], the “Oligomer fraction, no NR peptide” value is “ca. 0.7”. Besides, in data set [2], the “Random-coil content estimated from far-UV CD” value is 49%, the “α-helix content estimated from far-UV CD” value is 33% and the “β-sheet content estimated from far-UV CD” value was 18%. The “Affinity of refolded SBD641 for substrate” value with refolded SBD641 is “same affinity as the native protein”. Besides, in data set [3], the “Wavelength of fluorescence emission maximum, native” value stood at 340 nm; the “Wavelength of fluorescence emission maximum, refolded” value is reported as 345 nm; the “Wavelength of fluorescence emission maximum, thermally denatured” value amounted to 350 nm. In addition, the “∆Hm, 1st transition” value in data set [4] (CD 222 nm, 20 µM protein, 7 mM Tris pH 7.4, 170 mM KCl, 5 mM MgCl2, three-state fit (C-term two-state), SE of fit) was determined as 49.4 ± 3.3 kcal/mol. For the same substance, in data set [4] (CD 222 nm, 20 µM protein, 7 mM Tris pH 7.4, 170 mM KCl, 5 mM MgCl2, three-state fit, SE of fit), the “∆Hm, 2nd transition” value was 53.3 ± 1.2 kcal/mol. Further, in data set [4] (CD 222 nm, 5 to 90 °C at 1 °C/min, 20 µM protein, 7 mM Tris pH 7.4, 170 mM KCl, 5 mM MgCl2, three-state fit (C-term two-state), SE of fit), the “Tm, 1st transition” value was determined as 45.6 ± 0.4 °C. In data set [4] (CD 222 nm, 5 to 90 °C at 1 °C/min, 20 µM protein, 7 mM Tris pH 7.4, 170 mM KCl, 5 mM MgCl2, three-state fit, SE of fit), the “Tm, 2nd transition” value is 73.1 ± 0.1 °C and 73.1 ± 0.2 °C. For the same substance, the “Degree of irreversibility of overall protein thermal denaturation” value in data set [4] (far-UV CD) is on record as “ca. 20%”. Moreover, the “Reversibility of thermal unfolding” value in data set [4] (far-UV CD, second denaturation curve after cooling) was “is not”.

The values are drawn from article PMC3696110, “Hsp70 Oligomerization Is Mediated by an Interaction between the Interdomain Linker and the Substrate-Binding Domain” (PLoS ONE, 2013).
